PMC7326820, “Characterization of Purple Acid Phosphatase Family and Functional Analysis of GmPAP7a/7b Involved in Extracellular ATP Utilization in Soybean” (Frontiers in Plant Science, 2020)

Substrate: Nc1ncnc2c1ncn2[C@@H]1O[C@H](COP(=O)(O)OP(=O)(O)OP(=O)(O)O)[C@@H](O)[C@H]1O
Assay: Pi release, Lineweaver-Burk plot
Format: biochemical, Glycine max
Settings: pH and temperature not stated for kinetics (substrate tests in 45 mM Na-acetate pH 5.0)

| Protein | Km [µM] |
| --- | --- |
| GmPAP7a (Glycine max) (protein) MASSLNQRMLFPLMFVIGMFCLMVTPSIAELPIFKHPPKKQQSLNILVLGDWGRKGTYNQSLVANQMGIVGEKLDIDFVISTGDNFYEDGLKGVDDPAFYQSFVDMYTAPSLQKTWYTVLGNHDYRGDVGAQLSPILKQKDSRWLCMRSFILDGEIVEFFFVDTTPFVEEYFTDPGEHTYDWEGVLPRLAYLSELLKDVDLALAQSKAKWKMVVGHHTINSAGHHGNTEELKQLLVPILEANDVDAYINGHDHCLQHIIDNNSGIHFITSGGGSKAWSGDVKPWKLEELKLYYDGQGFMSMQITKSKADIIFYDAFGKVLHTWSISKDRNVAAWI | 110 |
| GmPAP7b (Glycine max) (protein) MASSLNQRMVFPVMVVVGMFCLLVTPSIAELPRFKHPPKKQQSLNILVLGDWGRKGTYNQSLVANQMGIVGEKLDIDFVISTGDNFYEDGLKGVDDPAFYQSFIHMYTAPSLQKTWYTVLGNHDYRGDVEAQLSPILKQKDSRWLCMRSFILDGEIVEFFFVDTTPFVEEYFTDPGEHTYDWEGVLPRLAYVSKLLKDVDSALAQSKAKWKMVVGHHTINSAGHHGSTEDLKQLLVPILEANNVDAYINGHDHCLQHIIDNNNGIHFITSGGGSKAWSGDVKPWKLEELKLYYDGQGFMSMQITKSTAYIIFYDAFGKVLHTWSISKDRNVAAWI | 66 |
